# Measurements from ChEMBL document CHEMBL5226320, “A versatile toolbox for investigating biological processes based on quinone methide chemistry: From self-immolative linkers to self-immobilizing agents” (Bioorg Med Chem, 2021).
# B1: Alkaline phosphatase, germ cell type (Homo sapiens), P10696 (protein)
# chain: MQGPWVLLLLGLRLQLSLGIIPVEEENPDFWNRQAAEALGAAKKLQPAQTAAKNLIIFLGDGMGVSTVTAARILKGQKKDKLGPETFLAMDRFPYVALSKTYSVDKHVPDSGATATAYLCGVKGNFQTIGLSAAARFNQCNTTRGNEVISVMNRAKKAGKSVGVVTTTRVQHASPAGAYAHTVNRNWYSDADVPASARQEGCQDIATQLISNMDIDVILGGGRKYMFPMGTPDPEYPDDYSQGGTRLDGKNLVQEWLAKHQGARYVWNRTELLQASLDPSVTHLMGLFEPGDMKYEIHRDSTLDPSLMEMTEAALLLLSRNPRGFFLFVEGGRIDHGHHESRAYRALTETIMFDDAIERAGQLTSEEDTLSLVTADHSHVFSFGGYPLRGSSIFGLAPGKARDRKAYTVLLYGNGPGYVLKDGARPDVTESESGSPEYRQQSAVPLDGETHAGEDVAVFARGPQAHLVHGVQEQTFIAHVMAFAACLEPYTACDLAPRAGTTDAAHPGPSVVPALLPLLAGTLLLLGTATAP
# Columns and labels:
# Conditions in all cases: Homo sapiens
# [1] = substrate: O=c1ccc2nc3ccc(OP(=O)(O)O)cc3oc-2c1; test: (§1) Binding affinity to ALP (unknown origin) assessed as Kcat/Km
# [2] = substrate: O=c1ccc2nc3ccc(OCc4ccc(OP(=O)(O)O)cc4)cc3oc-2c1; test: as §1
# [3] = substrate: O=c1ccc2nc3ccc(OP(=O)(O)O)cc3oc-2c1; test: (§2) Binding affinity to ALP (unknown origin)
# [4] = substrate: O=c1ccc2nc3ccc(OCc4ccc(OP(=O)(O)O)cc4)cc3oc-2c1; test: as §2
# [5] = substrate: O=c1ccc2nc3ccc(OP(=O)(O)O)cc3oc-2c1; test: (§3) Binding affinity to ALP (unknown origin) assessed as catalytic constant
# [6] = substrate: O=c1ccc2nc3ccc(OCc4ccc(OP(=O)(O)O)cc4)cc3oc-2c1; test: as §3
protein,measurement,setting,value
B1,kcat/Km,[1],6.58 10^3/M/s
same,kcat/Km,[2],1.7 10^4/M/s
same,Km,[3],24.6 µM
same,Km,[4],15.3 µM
same,kcat,[5],0.16 s⁻¹
same,kcat,[6],0.26 s⁻¹
